According to patent publication US20080167229A1 (Dana-Farber, published 2008):

Experiments:
[1] = molecular target: T1, N-terminal cleavage product of endogenous USP1 (human, UniProt O94782 1-671); assay: anti-Flag immunoprecipitation from transiently transfected 293T cells, anti-USP1 immunoblot
T1 construct: the end at 671 is inferred from that; also called N-terminal USP1; N-terminal USP1 fragment
T1 sequence: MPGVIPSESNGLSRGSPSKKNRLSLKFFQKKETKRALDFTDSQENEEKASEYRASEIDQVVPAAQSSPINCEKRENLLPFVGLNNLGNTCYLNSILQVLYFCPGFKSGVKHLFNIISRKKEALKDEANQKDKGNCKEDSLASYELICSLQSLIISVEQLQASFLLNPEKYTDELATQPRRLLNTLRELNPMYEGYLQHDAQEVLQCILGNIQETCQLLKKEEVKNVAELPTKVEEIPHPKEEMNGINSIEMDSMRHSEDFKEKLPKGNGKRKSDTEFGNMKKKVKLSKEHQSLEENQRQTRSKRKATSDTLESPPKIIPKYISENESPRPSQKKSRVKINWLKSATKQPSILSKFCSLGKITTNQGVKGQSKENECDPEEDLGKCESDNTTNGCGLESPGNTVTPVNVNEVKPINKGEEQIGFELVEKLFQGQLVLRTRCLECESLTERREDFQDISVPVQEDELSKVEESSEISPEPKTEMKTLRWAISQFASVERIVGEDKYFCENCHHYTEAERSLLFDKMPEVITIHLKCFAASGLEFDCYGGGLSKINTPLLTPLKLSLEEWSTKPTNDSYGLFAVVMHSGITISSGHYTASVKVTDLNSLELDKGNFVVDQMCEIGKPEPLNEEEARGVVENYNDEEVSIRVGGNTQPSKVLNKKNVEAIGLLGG
Experimental: (§1) The Flag-tagged proteins were immunoprecipitated from cell lysates using anti-Flag antibodies. The immunoprecipitates were analyzed using the indicated antibodies. […] The concentrations of all proteins were 10 nM.

[2] = molecular target: T2, endogenous USP1, full length (HeLa and 293T cells) (human, UniProt O94782 1-785); assay: as above
T2 construct: Full length endogenous protein detected in immunoprecipitates; also called Ubiquitin Specific Protease 1
T2 sequence: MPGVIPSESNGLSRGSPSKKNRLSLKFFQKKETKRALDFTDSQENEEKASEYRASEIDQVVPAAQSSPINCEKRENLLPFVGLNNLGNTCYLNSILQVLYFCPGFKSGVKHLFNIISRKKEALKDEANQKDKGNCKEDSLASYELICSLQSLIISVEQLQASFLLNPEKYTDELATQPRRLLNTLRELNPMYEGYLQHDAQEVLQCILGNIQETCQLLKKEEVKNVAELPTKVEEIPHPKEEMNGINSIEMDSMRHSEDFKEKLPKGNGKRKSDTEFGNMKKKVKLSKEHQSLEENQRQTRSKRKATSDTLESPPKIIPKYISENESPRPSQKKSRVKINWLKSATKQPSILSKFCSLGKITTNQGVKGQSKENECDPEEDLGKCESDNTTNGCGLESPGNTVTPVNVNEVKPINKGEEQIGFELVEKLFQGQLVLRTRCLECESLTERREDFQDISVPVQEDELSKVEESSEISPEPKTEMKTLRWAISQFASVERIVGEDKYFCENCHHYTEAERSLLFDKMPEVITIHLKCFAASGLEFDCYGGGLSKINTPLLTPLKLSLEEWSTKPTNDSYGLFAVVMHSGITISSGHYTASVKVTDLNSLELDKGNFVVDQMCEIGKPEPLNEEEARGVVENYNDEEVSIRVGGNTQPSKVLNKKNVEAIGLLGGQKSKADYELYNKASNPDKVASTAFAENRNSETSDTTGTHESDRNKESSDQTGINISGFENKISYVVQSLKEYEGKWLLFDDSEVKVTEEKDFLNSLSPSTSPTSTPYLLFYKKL
Experimental: as §1

- binding result [1]: no binding
- binding result [2]: no binding
B1: Flag-tagged UAF1-Δ507-546 expressed in 293T cells (other)
chain: MAAHHRQNTAGRRKVQVSYVIRDEVEKYNRNGVNALQLDPALNRLFTAGRDSIIRIWSVNQHKQDPYIASMEHHTDWVNDIVLCCNGKTLISASSDTTVKVWNAHKGFCMSTLRTHKDYVKALAYAKDKELVASAGLDRQIFLWDVNTLTALTASNNTVTTSSLSGNKDSIYSLAMNQLGTIIVSGSTEKVLRVWDPRTCAKLMKLKGHTDNVKALLLNRDGTQCLSGSSDGTIRLWSLGQQRCIATYRVHDEGVWALQVNDAFTHVYSGGRDRKIYCTDLRNPDIRVLICEEKAPVLKMELDRSADPPPAIWVATTKSTVNKWTLKGIHNFRASGDYDNDCTNPITPLCTQPDQVIKGGASIIQCHILNDKRHILTKDTNNNVAYWDVLKACKVEDLGKVDFEDEIKKRFKMVYVPNWFSVDLKTGMLTITLDESDCFAAWVSAKDAGFSSPDGSDPKLNLGGLLLQALLEYWPRTHVNPMDEEENEVNHVNGEQENRVQKGNGYPQWVIDITVDKNMPKFNKIPFYLQPHASSGAKTLKKDRLSASDMLQVRKVMEHVYEKIINLDNESQTTSSSNNEKPGEQEKEEDIAVLAEEKIELLCQDQVLDPNMDLRTVKHFIWKSGGDLTLHYRQKS
notes: Deletion of aa 507-546 as printed; not shown: Flag tag
